Laboratory results published in the supplement of paper PMC11136658.

Test system: peptide library, one residue held at a place counted from the Y acceptor
Test: relative phosphorylation of the sub-library (ratio to the mean residue at this position); higher = residue favoured
Outline: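 Purified recombinant kinases were given 50 μM ATP with γ-32P-ATP and biotinylated Tyr-centred peptide library mixtures for 90 min in 384-well plates. Peptides bound to streptavidin membranes were rinsed and quantified by phosphorimaging, and intensities were normalized per position by the sum of the 18 randomized residues (16 with the Ser/Thr-free library) and multiplied by that number. The reported values are phosphorylation relative to the mean randomized residue.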

DDR1, construct: aa444-end, human, sequence (Q08345 444-913, looked up): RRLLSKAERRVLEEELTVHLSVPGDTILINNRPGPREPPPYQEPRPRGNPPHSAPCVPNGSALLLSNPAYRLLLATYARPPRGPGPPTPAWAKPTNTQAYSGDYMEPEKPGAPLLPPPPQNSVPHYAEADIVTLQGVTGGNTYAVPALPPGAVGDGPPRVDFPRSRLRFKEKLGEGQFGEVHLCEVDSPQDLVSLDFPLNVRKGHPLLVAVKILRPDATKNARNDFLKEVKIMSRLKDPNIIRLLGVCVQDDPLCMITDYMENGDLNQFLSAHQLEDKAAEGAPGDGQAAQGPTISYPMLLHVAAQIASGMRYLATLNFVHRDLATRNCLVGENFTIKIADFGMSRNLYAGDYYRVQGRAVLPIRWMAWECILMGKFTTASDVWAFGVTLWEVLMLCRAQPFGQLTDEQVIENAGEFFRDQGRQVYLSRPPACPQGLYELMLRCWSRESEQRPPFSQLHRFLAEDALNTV
DDR2, construct: aa522-end, human, sequence (Q16832 522-855, looked up): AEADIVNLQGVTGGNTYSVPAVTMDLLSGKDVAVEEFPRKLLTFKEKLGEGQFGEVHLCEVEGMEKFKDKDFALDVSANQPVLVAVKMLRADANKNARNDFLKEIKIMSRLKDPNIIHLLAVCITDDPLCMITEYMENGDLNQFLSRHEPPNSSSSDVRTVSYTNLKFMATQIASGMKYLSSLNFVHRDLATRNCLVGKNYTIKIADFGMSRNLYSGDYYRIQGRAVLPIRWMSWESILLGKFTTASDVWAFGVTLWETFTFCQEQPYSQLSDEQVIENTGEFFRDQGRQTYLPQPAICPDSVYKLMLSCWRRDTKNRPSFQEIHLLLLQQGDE

DDR1, construct: aa444-end, human (from UniProt Q08345)
relative phosphorylation
Conditions | at +1 | at +2 | at +3 | at +4 | at +5 | at -1 | at -2 | at -3 | at -4 | at -5
A fixed | 1.61 | 0.998 | 0.762 | 0.858 | 0.675 | 1.07 | 1.08 | 1.02 | 1.18 | 1.16
D fixed | 0.629 | 0.815 | 0.717 | 0.883 | 0.561 | 1.35 | 0.723 | 0.719 | 0.772 | 0.767
E fixed | 0.665 | 1.36 | 0.716 | 0.964 | 0.549 | 0.785 | 0.748 | 0.717 | 0.798 | 0.759
F fixed | 1.62 | 1.04 | 1.38 | 2.72 | 3.66 | 1.13 | 0.804 | 1.18 | 1.16 | 1.38
G fixed | 0.639 | 0.629 | 0.633 | 0.621 | 0.701 | 0.7 | 1.07 | 0.946 | 1.05 | 1.06
H fixed | 1.07 | 0.986 | 1.16 | 1.19 | 1.03 | 1.14 | 1.24 | 1.45 | 1.13 | 1.13
I fixed | 0.955 | 1.1 | 1.63 | 1.01 | 1.49 | 0.938 | 0.721 | 0.828 | 0.716 | 0.728
K fixed | 0.817 | 0.809 | 0.736 | 0.743 | 0.623 | 0.81 | 1.44 | 1.35 | 1.4 | 1.34
L fixed | 0.781 | 1.42 | 1.56 | 0.985 | 1.21 | 0.958 | 0.794 | 0.773 | 0.81 | 0.736
M fixed | 0.972 | 1.26 | 1.58 | 0.982 | 1.08 | 0.825 | 0.79 | 0.82 | 0.949 | 0.816
N fixed | 0.846 | 0.891 | 0.755 | 0.75 | 0.586 | 2.03 | 1.24 | 1.05 | 0.924 | 1.03
P fixed | 0.677 | 0.738 | 0.619 | 0.752 | 1.05 | 0.971 | 1.18 | 0.871 | 1.05 | 1.02
Q fixed | 0.916 | 0.888 | 0.74 | 0.806 | 0.598 | 0.934 | 1.05 | 0.96 | 1.09 | 1.02
R fixed | 0.963 | 0.845 | 0.784 | 0.807 | 0.732 | 0.806 | 1.63 | 1.49 | 1.48 | 1.44
S fixed | 0.974 | 0.796 | 0.602 | 0.56 | 0.617 | 0.92 | 1.11 | 0.975 | 0.835 | 0.896
T fixed | 1.14 | 0.912 | 0.744 | 0.678 | 0.667 | 0.835 | 0.904 | 0.91 | 0.829 | 0.853
V fixed | 1.72 | 1.29 | 1.46 | 1.25 | 1.02 | 0.917 | 0.73 | 0.786 | 0.798 | 0.823
W fixed | 1 | 1.22 | 1.43 | 1.44 | 1.14 | 0.886 | 0.747 | 1.15 | 1.03 | 1.04
pThr fixed | 0.793 | 1.37 | 0.799 | 1.1 | 0.686 | 0.743 | 0.653 | 0.678 | 0.726 | 0.775
pTyr fixed | 1.03 | 2 | 0.914 | 1.43 | 0.653 | 0.867 | 0.713 | 0.849 | 0.908 | 0.953

DDR2, construct: aa522-end, human (from UniProt Q16832)
relative phosphorylation
Conditions | at +1 | at +2 | at +3 | at +4 | at +5 | at -1 | at -2 | at -3 | at -4 | at -5
A fixed | 2.33 | 0.781 | 0.51 | 0.457 | 0.507 | 1.2 | 0.969 | 0.938 | 0.924 | 1.1
D fixed | 0.221 | 0.71 | 0.309 | 1.13 | 0.445 | 1.83 | 0.707 | 0.692 | 0.688 | 0.848
E fixed | 0.206 | 1.66 | 0.283 | 1.36 | 0.393 | 0.583 | 0.635 | 0.567 | 0.724 | 0.771
F fixed | 0.905 | 0.738 | 1.38 | 2.06 | 2.29 | 0.517 | 0.358 | 1.13 | 0.728 | 0.723
G fixed | 0.361 | 0.37 | 0.296 | 0.372 | 0.632 | 0.617 | 1.19 | 1.09 | 1.43 | 1.38
H fixed | 0.894 | 0.92 | 0.901 | 1.63 | 0.817 | 1.14 | 1.58 | 1.82 | 1.29 | 1.17
I fixed | 1.13 | 1.08 | 3.3 | 1.09 | 2.43 | 0.879 | 0.316 | 0.472 | 0.627 | 0.548
K fixed | 0.899 | 0.687 | 0.35 | 0.56 | 0.607 | 0.653 | 1.85 | 1.44 | 1.6 | 1.42
L fixed | 0.602 | 1.42 | 1.94 | 0.851 | 1.4 | 0.828 | 0.449 | 0.466 | 0.581 | 0.702
M fixed | 1.12 | 1.3 | 2.09 | 0.824 | 1.08 | 0.593 | 0.597 | 0.534 | 0.933 | 0.787
N fixed | 0.502 | 1.03 | 0.365 | 1.05 | 0.747 | 2.72 | 1.66 | 1.3 | 0.985 | 1.01
P fixed | 0.745 | 0.655 | 0.306 | 0.383 | 0.962 | 1.57 | 1.55 | 1.15 | 1.52 | 1.45
Q fixed | 0.823 | 0.933 | 0.505 | 1.02 | 0.56 | 0.829 | 1.1 | 0.917 | 1.01 | 0.996
R fixed | 1.38 | 0.825 | 0.49 | 0.88 | 0.861 | 0.656 | 2.03 | 1.96 | 1.89 | 1.67
S fixed | 1.04 | 1.14 | 0.464 | 0.701 | 0.586 | 0.989 | 1.21 | 0.968 | 0.876 | 1.02
T fixed | 1.54 | 1.18 | 0.991 | 0.855 | 0.688 | 1.11 | 1.03 | 0.906 | 0.858 | 0.905
V fixed | 2.79 | 1.32 | 1.95 | 1.02 | 1.76 | 0.839 | 0.372 | 0.553 | 0.651 | 0.73
W fixed | 0.511 | 1.24 | 1.58 | 1.76 | 1.24 | 0.438 | 0.383 | 1.1 | 0.679 | 0.754
pThr fixed | 0.698 | 1.61 | 0.5 | 1.87 | 0.616 | 0.706 | 0.487 | 0.467 | 0.612 | 0.696
pTyr fixed | 0.68 | 2.07 | 0.439 | 2.16 | 0.38 | 0.474 | 0.473 | 0.614 | 0.613 | 0.75

EGFR, construct: aa668-end, human (from UniProt P00533)
relative phosphorylation
Conditions | at +1 | at +2 | at +3 | at +4 | at +5 | at -1 | at -2 | at -3 | at -4 | at -5
A fixed | 0.795 | 0.684 | 0.702 | 0.943 | 1.08 | 0.639 | 1.08 | 0.898 | 1.14 | 0.991
D fixed | 0.496 | 1.29 | 1.17 | 1.09 | 1.12 | 2.93 | 1.74 | 2.12 | 1.58 | 1.34
E fixed | 0.948 | 1.95 | 1.08 | 1.42 | 1.06 | 2.35 | 1.92 | 2.39 | 1.59 | 1.2
F fixed | 2.04 | 1.23 | 1.06 | 0.967 | 1.06 | 0.716 | 0.637 | 0.848 | 1.01 | 0.989
G fixed | 0.246 | 0.422 | 0.884 | 1.19 | 1.11 | 0.487 | 1.09 | 1.03 | 1.1 | 1.24
H fixed | 1.4 | 0.836 | 0.882 | 1.08 | 0.904 | 0.988 | 0.813 | 0.949 | 0.77 | 0.989
I fixed | 1.85 | 1.12 | 1.72 | 0.823 | 0.785 | 1.77 | 0.862 | 0.601 | 0.801 | 0.955
K fixed | 0.26 | 0.498 | 0.34 | 0.895 | 0.935 | 0.315 | 0.605 | 0.561 | 0.789 | 0.794
L fixed | 0.988 | 0.964 | 1.51 | 0.756 | 0.918 | 1.07 | 0.831 | 0.748 | 0.992 | 1
M fixed | 0.826 | 1.03 | 1.02 | 1.11 | 0.902 | 0.757 | 0.821 | 0.776 | 0.855 | 0.96
N fixed | 0.383 | 1.01 | 0.61 | 0.783 | 0.881 | 1.09 | 1.06 | 1.2 | 0.917 | 1.1
P fixed | 0.313 | 0.623 | 0.824 | 1.1 | 1.66 | 0.721 | 1.11 | 0.934 | 1.1 | 1.07
Q fixed | 0.804 | 0.905 | 0.941 | 0.969 | 0.827 | 0.768 | 1.13 | 0.881 | 1.08 | 0.954
R fixed | 0.299 | 0.685 | 0.665 | 0.978 | 0.825 | 0.317 | 0.575 | 0.586 | 0.763 | 0.87
S fixed | 0.762 | 0.843 | 0.79 | 0.931 | 1.14 | 0.546 | 1.13 | 0.995 | 0.827 | 0.88
T fixed | 1.09 | 0.907 | 0.956 | 0.964 | 0.913 | 0.784 | 0.923 | 0.935 | 0.672 | 0.802
V fixed | 2.64 | 1.05 | 1.47 | 0.88 | 0.899 | 1.16 | 0.979 | 0.7 | 0.825 | 0.851
W fixed | 1.85 | 1.96 | 1.37 | 1.12 | 0.981 | 0.598 | 0.708 | 0.843 | 1.19 | 1
pThr fixed | 1.41 | 1.5 | 0.796 | 1.02 | 1.08 | 2.05 | 1.57 | 1.61 | 1.41 | 1.2
pTyr fixed | 11.9 | 5.31 | 0.921 | 1.45 | 1.01 | 5.3 | 2.06 | 2.19 | 2.18 | 1.69
